Measured values reported in patent US20110318339A1 (FABRUS, published 2011).

Legend:
[1] = target: T1, rHuman ErbB2/Fc Chimera, CF (Cat# 1129-ER) (human, UniProt P04626 23-652); experiment: Multispot ECL; Fab 930 nM
T1 construct: Bought from R&D Systems; also called human epidermal growth factor 2 receptor (ErbB2)
Protocol: (§1) An 150 μl aliquot of 1% Bovine Serum Albumin (BSA) in Tris-buffered Saline Tween (TBST) was added to each well and allowed to incubate for 30 min at 20° C. followed by washing and tap drying to completely remove any residual solution. Subsequently, a 12.5 μl aliquot of 1% BSA TBST was added to each well followed by the addition of a 12.5 μl aliquot of a purified Fab. The plate was sealed and incubated for 1 hour at 20° C. with shaking.
(§2) Detection antibodies were prepared by individually conjugating both goat anti-human Kappa light chain polyclonal antibody (K3502-1MG, Sigma-Aldrich) and goat anti-human Lambda light chain polyclonal antibody (L1645-1 mL, Sigma-Aldrich) with Ruthenium (II) tris-bipyridine-(4-methylsulfone)-N-hydroxysuccinimide (SULFO-TAG NHS-ester, Meso Scale Discovery) according to the manufacturer's instructions. TAG-detection antibody at 25 μl was added to each well and allowed to incubate for 1 hour at 20° C. with shaking. Finally, 15 μl of Read Buffer P with Surfactant (Cat # R92PC-1, Meso Scale Discovery) was added to each well. The electrochemiluminescence was measured using a Sector Imager 2400 (Meso Scale Discovery). Data was analyzed by comparing the ECL signals for an antigen to the blank of each well. A signal to blank ratio of 4 or more was considered a “Hit” Fab.
(§3) To confirm a “Hit” from the initial Multispot ECL screening, a Fab concentration dependent titration was carried out to determine the Fab-antigen binding affinity.

[2] = target: T2, rHuman Notch-1/Fc Chimera, CF (Cat# 3647-TK) (human, UniProt P46531 19-526); experiment: Multispot ECL; Fab 930 nM
T2 construct: Bought from R&D Systems
Protocol: as §1, §2, §3

[3] = target: T3, rHuman CD44/Fc Chimera, CF (Cat# 3660-CD) (human, UniProt P16070 21-220); experiment: Multispot ECL; Fab 930 nM
T3 construct: Bought from R&D Systems
Protocol: as §1, §2, §3

[4] = target: T4, rHuman IGF-1 sR, (IGF-1 sR), CF (Cat# 391-GR) (human, UniProt P08069 31-932); experiment: Multispot ECL; Fab 930 nM
T4 construct: Bought from R&D Systems; also called insulin-like growth factor-1 soluble receptor
Protocol: as §1, §2, §3

[5] = target: T5, rHuman Erythropoietin R/Fc Chimera, CF (Cat# 963-ER) (human, UniProt P19235 25-250); experiment: Multispot ECL; Fab 930 nM
T5 construct: Bought from R&D Systems; also called EPO R/Fc; Epo R/Fc chimera
T5 sequence (looked up): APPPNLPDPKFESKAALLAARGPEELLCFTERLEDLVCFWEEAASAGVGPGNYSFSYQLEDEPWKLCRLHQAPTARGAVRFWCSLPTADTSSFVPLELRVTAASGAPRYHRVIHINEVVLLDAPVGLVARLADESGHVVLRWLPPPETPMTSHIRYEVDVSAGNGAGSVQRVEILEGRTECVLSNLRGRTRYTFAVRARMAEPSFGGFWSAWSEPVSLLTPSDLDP
Protocol: as §1, §2, §3

[6] = target: T6, Recombinant Human DLL4 (Cat# 1506-D4/CF) (human, UniProt Q9NR61 27-529); experiment: Multispot ECL; Fab 930 nM
T6 construct: Bought from R&D Systems; also called rHuman DLL4; hDLL4
Protocol: as §1, §2, §3

[7] = target: T1, rHuman ErbB2/Fc Chimera, CF (Cat# …); experiment: Multispot ECL; Fab 14.5 nM
Protocol: as §1, §2, §3

[8] = target: T2, rHuman Notch-1/Fc Chimera, CF (Cat# …); experiment: Multispot ECL; Fab 14.5 nM
Protocol: as §1, §2, §3

[9] = target: T3, rHuman CD44/Fc Chimera, CF (Cat# …); experiment: Multispot ECL; Fab 14.5 nM
Protocol: as §1, §2, §3

[10] = target: T4, rHuman IGF-1 sR, (IGF-1 sR), CF (Cat# …); experiment: Multispot ECL; Fab 14.5 nM
Protocol: as §1, §2, §3

[11] = target: T5, rHuman Erythropoietin R/Fc Chimera, CF …; experiment: Multispot ECL; Fab 14.5 nM
Protocol: as §1, §2, §3

[12] = target: T6, Recombinant Human DLL4 (Cat# 1506-D4/CF); experiment: Multispot ECL; Fab 14.5 nM
Protocol: as §1, §2, §3

[13] = target: T1, rHuman ErbB2/Fc Chimera, CF (Cat# …); experiment: Multispot ECL; Fab 58.1 nM
Protocol: as §1, §2, §3

[14] = target: T2, rHuman Notch-1/Fc Chimera, CF (Cat# …); experiment: Multispot ECL; Fab 58.1 nM
Protocol: as §1, §2, §3

[15] = target: T3, rHuman CD44/Fc Chimera, CF (Cat# …); experiment: Multispot ECL; Fab 58.1 nM
Protocol: as §1, §2, §3

[16] = target: T4, rHuman IGF-1 sR, (IGF-1 sR), CF (Cat# …); experiment: Multispot ECL; Fab 58.1 nM
Protocol: as §1, §2, §3

[17] = target: T5, rHuman Erythropoietin R/Fc Chimera, CF …; experiment: Multispot ECL; Fab 58.1 nM
Protocol: as §1, §2, §3

[18] = target: T6, Recombinant Human DLL4 (Cat# 1506-D4/CF); experiment: Multispot ECL; Fab 58.1 nM
Protocol: as §1, §2, §3

[19] = target: T1, rHuman ErbB2/Fc Chimera, CF (Cat# …); experiment: Multispot ECL; Fab 232.5 nM
Protocol: as §1, §2, §3

[20] = target: T2, rHuman Notch-1/Fc Chimera, CF (Cat# …); experiment: Multispot ECL; Fab 232.5 nM
Protocol: as §1, §2, §3

[21] = target: T3, rHuman CD44/Fc Chimera, CF (Cat# …); experiment: Multispot ECL; Fab 232.5 nM
Protocol: as §1, §2, §3

[22] = target: T4, rHuman IGF-1 sR, (IGF-1 sR), CF (Cat# …); experiment: Multispot ECL; Fab 232.5 nM
Protocol: as §1, §2, §3

[23] = target: T5, rHuman Erythropoietin R/Fc Chimera, CF …; experiment: Multispot ECL; Fab 232.5 nM
Protocol: as §1, §2, §3

[24] = target: T6, Recombinant Human DLL4 (Cat# 1506-D4/CF); experiment: Multispot ECL; Fab 232.5 nM
Protocol: as §1, §2, §3

B1: Fab VH1-46_IGHD6-13*01_IGHJ4*01 & O1_IGKJ1*01 (Fab, V domains shown)
VH: QVQLVQSGAEVKKPGASVKVSCKASGYTFTSYYMHWVRQAPGQGLEWMGIINPSGGSTSYAQKFQGRVTMTRDTSTSTVYMELSSLRSEDTAVYYCAREGYSSSWYDYFDYWGQGTLVTVSS
VL: DIVMTQTPLSLPVTPGEPASISCRSSQSLLDSDDGNTYLDWYLQKPGQSPQLLIYTLSYRASGVPDRFSGSGSGTDFTLKISRVEAEDVGVYYCMQRIEFPSWTFGQGTKVEIKR
notes: Germline-derived Fab from E. coli: VH in Plasmid A (CH1, His6 and Flag tags), VL in Plasmid C (kappa CL)
ECL signal [1]: 2220
ECL signal [2]: 2210
ECL signal [3]: 1920
ECL signal [4]: 1920
ECL signal [5]: 3010
ECL signal [6]: 8160
ECL signal [7]: 274
ECL signal [8]: 317
ECL signal [9]: 212
ECL signal [10]: 234
ECL signal [11]: 660
ECL signal [12]: 1150
ECL signal [13]: 322
ECL signal [14]: 388
ECL signal [15]: 375
ECL signal [16]: 343
ECL signal [17]: 829
ECL signal [18]: 1880
ECL signal [19]: 779
ECL signal [20]: 778
ECL signal [21]: 607
ECL signal [22]: 569
ECL signal [23]: 1470
ECL signal [24]: 3590
